What all share (assay): cell-based or functional assay
One assay concerns the target T1, Caspase-9, P55211.
T1 chain: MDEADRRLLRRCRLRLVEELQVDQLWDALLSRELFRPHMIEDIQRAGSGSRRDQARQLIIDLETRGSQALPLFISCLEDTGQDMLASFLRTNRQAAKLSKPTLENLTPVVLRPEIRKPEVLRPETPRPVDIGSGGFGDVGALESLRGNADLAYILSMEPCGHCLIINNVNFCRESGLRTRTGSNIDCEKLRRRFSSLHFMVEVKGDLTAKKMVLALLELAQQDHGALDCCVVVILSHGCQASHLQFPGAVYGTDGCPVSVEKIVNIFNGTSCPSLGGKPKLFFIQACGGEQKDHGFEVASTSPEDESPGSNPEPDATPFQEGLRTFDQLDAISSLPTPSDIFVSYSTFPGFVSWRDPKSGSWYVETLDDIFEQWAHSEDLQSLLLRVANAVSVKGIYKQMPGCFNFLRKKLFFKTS

For another assay, the target named is T2, Caspase-8, Q14790.
T2 chain: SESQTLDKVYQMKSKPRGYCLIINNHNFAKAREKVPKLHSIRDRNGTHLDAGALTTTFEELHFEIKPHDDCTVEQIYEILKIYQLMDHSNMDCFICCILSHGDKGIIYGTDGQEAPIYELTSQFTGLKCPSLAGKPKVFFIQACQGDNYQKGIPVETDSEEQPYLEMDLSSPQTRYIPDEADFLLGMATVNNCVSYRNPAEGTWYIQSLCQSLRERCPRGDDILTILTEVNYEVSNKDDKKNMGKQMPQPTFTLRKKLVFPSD

The target of assay [1] is T3, calpain I from porcine erythrocytes (porcine), P35750.
T3 chain: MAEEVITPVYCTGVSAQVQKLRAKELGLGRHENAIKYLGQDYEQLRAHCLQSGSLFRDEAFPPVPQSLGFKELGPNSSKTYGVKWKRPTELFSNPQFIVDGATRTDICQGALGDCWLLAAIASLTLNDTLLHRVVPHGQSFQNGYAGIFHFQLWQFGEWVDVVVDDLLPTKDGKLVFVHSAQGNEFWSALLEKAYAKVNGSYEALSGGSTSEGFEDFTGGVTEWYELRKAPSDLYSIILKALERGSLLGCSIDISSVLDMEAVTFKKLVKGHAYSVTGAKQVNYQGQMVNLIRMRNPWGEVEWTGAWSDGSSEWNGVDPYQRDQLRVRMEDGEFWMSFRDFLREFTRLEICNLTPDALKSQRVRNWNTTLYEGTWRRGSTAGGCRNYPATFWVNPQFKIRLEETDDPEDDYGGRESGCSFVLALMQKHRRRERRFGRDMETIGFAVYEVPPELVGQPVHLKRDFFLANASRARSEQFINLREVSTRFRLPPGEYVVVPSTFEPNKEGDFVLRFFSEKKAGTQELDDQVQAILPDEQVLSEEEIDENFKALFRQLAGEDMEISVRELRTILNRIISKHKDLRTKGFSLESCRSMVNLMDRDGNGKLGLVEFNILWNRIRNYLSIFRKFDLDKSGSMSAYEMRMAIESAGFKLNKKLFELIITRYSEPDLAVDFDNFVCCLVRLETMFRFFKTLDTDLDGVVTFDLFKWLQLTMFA

The target of another assay is T4, Caspase-3, P42574.
T4 chain: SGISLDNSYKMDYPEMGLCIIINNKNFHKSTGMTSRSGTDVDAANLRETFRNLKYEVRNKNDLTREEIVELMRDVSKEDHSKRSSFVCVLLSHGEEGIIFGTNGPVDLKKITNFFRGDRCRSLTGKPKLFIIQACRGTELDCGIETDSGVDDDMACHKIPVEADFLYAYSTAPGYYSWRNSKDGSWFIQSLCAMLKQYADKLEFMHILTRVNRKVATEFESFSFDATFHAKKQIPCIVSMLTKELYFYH

In another assay the target is T5, Caspase-6, P55212.
T5 chain: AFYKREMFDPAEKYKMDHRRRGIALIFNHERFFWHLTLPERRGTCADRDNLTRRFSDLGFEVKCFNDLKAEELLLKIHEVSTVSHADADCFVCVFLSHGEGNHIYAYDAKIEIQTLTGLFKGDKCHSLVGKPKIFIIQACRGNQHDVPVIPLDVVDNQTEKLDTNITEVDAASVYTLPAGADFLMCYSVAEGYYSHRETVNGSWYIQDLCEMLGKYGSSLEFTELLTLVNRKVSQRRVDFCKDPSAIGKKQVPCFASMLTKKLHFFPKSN

For another assay, the target named is Cathepsin B.
A further assay concerns the target T6, Caspase-10, Q92851.
T6 chain: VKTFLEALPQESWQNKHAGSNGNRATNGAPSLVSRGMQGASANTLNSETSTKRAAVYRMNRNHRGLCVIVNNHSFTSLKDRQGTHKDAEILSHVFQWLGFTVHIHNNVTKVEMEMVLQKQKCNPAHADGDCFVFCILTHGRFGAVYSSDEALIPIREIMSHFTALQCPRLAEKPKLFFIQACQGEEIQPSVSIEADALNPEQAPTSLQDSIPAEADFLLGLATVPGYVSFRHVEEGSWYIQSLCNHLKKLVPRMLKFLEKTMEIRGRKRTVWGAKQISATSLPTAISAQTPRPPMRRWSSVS

In another assay the target is T7, Caspase-7, P55210.
T7 chain: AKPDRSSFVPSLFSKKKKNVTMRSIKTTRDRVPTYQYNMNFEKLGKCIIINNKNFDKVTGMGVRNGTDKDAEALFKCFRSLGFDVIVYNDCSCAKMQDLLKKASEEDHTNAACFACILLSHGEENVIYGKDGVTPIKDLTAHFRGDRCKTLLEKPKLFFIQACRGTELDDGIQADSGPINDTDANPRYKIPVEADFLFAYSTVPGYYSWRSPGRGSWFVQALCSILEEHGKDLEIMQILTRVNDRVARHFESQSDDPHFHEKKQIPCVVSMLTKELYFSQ

In a further assay the target is T8, Caspase-2, P42575.
T8 chain: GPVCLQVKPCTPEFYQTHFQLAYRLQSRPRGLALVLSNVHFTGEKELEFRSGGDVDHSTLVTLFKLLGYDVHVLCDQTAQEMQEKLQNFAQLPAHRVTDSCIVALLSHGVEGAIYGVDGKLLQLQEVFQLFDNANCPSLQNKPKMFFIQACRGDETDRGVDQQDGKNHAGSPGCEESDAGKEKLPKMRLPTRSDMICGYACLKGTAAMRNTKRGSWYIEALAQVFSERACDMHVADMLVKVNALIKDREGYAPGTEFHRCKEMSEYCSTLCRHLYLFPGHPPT

Take LETD (modifications not checked) [Cbz-Leu-Glu-Thr-AAsp-CH═CH-COOEt]: the k2 was 37 M⁻¹ s⁻¹ with Caspase-9, P55211; 237000 M⁻¹ s⁻¹ with Caspase-8, Q14790; less than 10 M⁻¹ s⁻¹ in [1]; 5560 M⁻¹ s⁻¹ with Caspase-3, P42574; 18700 M⁻¹ s⁻¹ with Caspase-6, P55212; less than 10 M⁻¹ s⁻¹ in the assay with Cathepsin B.
DEVD (modifications not checked) [Cbz-Asp-Glu-Val-AAsp-CH═CH-COOEt (trans)]: the k2 is 49900 M⁻¹ s⁻¹ in the assay with Caspase-10, Q92851; 273000 M⁻¹ s⁻¹ with Caspase-8, Q14790; 2.13e+06 M⁻¹ s⁻¹ with Caspase-3, P42574; 239000 M⁻¹ s⁻¹ in the assay with Caspase-7, P55210; 35600 M⁻¹ s⁻¹ with Caspase-6, P55212; 2640 M⁻¹ s⁻¹ with Caspase-2, P42575.

These data come from patent US20050256058A1.
